Measured values taken from the nanobody polyreactivity screen of Harvey et al. (2022).

Experiment: yeast display, Sf9 membrane polyspecificity reagent, FACS + sequencing; frameworks hold sequencing errors
Procedure, shortened: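 A synthetic nanobody library was expressed on Saccharomyces cerevisiae BJ5465 by galactose induction for 36–48 hours. The library was stained for 1 hour at 4 °C with 10% biotinylated, detergent-solubilized Sf9 membrane reagent and enriched with streptavidin microbeads before FACS. Low and high (top ~1%) gates were set on anti-HA fluorescence for expression and streptavidin fluorescence for reagent binding, and each polyreactivity label reflects the gate of origin.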

Question: For “QVQLVESGGGLVQAGGSLRLSCAASGLTFDHNVMGWYRQAPGKERELVAAISRSGSSTYYADSVKGRFTISRDNAKNTVYLQMNSLKPEDTAVYYCAASDKRIYNLLRRYYYWGQGTQVTVSS”, which “polyreactivity (PSR sort gate)” value is on record?
Answer: high polyreactivity

Question: For “QVQLVESGGGLVQAGGSLRLSCAASGLTFDQYVMGWYRQAPGKERELVAAISRRGGGTYYADSVKGRFTISRDNAKNTVYLQMNSLKPEDTAVYYCNTDQAWRSWRGNYPFLTGNYWGQGTQVTVSS”, which “polyreactivity (PSR sort gate)” value is on record?
Answer: high polyreactivity

Question: Which “polyreactivity (PSR sort gate)” value does the source give for “QVQLVESGGGLVQAGGSLRLSCAASGLTFDRYAKGWYRQAPGKERELVAAITSGGSTYYADSVKGRFTISRDNAKNTVYLQMNSLKPEDTAVYYCAALVFRGRSFTHDYWGQGTQVTVSS” here?
Answer: high polyreactivity

Question: For “QVQLVESGGGLVQAGGSLRLSCAASGLTFDTYAMGWYRQAPGKERELVAAISIGGRTNYADSVKGRFTISRDNAKNTVYLQMNSLKPEDTAVYYCAVGAVVPGRRRRTYYYWGQGTQVTVSS”, which “polyreactivity (PSR sort gate)” value is on record?
Answer: high polyreactivity

Question: Which “polyreactivity (PSR sort gate)” value does the source give for “QVQLVESGGGLVQAGGSLRLSCAASGLTFDVYAMGWYRQAPGKERELVAALSTSGGRTYSADSVKGRFTISRDNAKNTVYLQMNSLKPEVTAVYYCNAGYDYYWRYYWYWYAFNYWGQGTQVTVSS” here?
Answer: high polyreactivity

Question: For “QVQLVESGGGLVQAGGSLRLSCAASGLTFDWYALGWYRQAPGKERELVAAISWNGVSTDYADSVKGRFTISRDNAKNTVYLQMNSLKPEDTAVYYCNAKGQRNKRWRGYWGQGTQVTVSS”, which “polyreactivity (PSR sort gate)” value is on record?
Answer: high polyreactivity

Question: For “QVQLVESGGGLVQAGGSLRLSCAASGLTFEDYAMGWNRQEPGKEREFVAAISTSGGRTYYADSVKGRFTISRDNAKNTVYLQMNSLKPEDTAVYYCAAGGWYGYVYRFYYWGQGTQVTVSS”, which “polyreactivity (PSR sort gate)” value is on record?
Answer: high polyreactivity

Question: For “QVQLVESGGGLVQAGGSLRLSCAASGLTFEKYAMGWYRQAPGKERELVAAISQDGGSTYYADSVKGRFTISRDNAKNTVYLQMNSLKPEDTAVYYCAAEDPDSWLPWDLFDYWGQGTQVTVSS”, which “polyreactivity (PSR sort gate)” value is on record?
Answer: low polyreactivity

Question: With “QVQLVESGGGLVQAGGSLRLSCAASGLTFEWYTMGWYRQAPGKERALVAVITVSGSSTYYADSVKGRFSISRDNAKNTVYFQMNSLKPEDTAVYYCNADWSFYSYTLYDYWGQGTQVTVSS” as the sequence, how does the “polyreactivity (PSR sort gate)” value read?
Answer: low polyreactivity

Question: With “QVQLVESGGGLVQAGGSLRLSCAASGLTFFNYAMGWNRQAPGKERELVASITSGGSTNYADSVKGRFTISRDNAKNTVYLQMNSLNPEDTAVYYCAARYPYRTYKLSHSYARPYGYWGQGTQVTVSS” as the sequence, how does the “polyreactivity (PSR sort gate)” value read?
Answer: high polyreactivity

Question: Which “polyreactivity (PSR sort gate)” value does the source give for “QVQLVESGGGLVQAGGSLRLSCAASGLTFFYYAMGWYRQAPGKERELVAGISRSGGSTYYADSVKGRFTISRDNAKNTVYLQMISLKPEDTAVYYCAKRTLVASYIYREGEYWGQGTQVTVSS” here?
Answer: high polyreactivity

Question: For “QVQLVESGGGLVQAGGSLRLSCAASGLTFFYYAMGWYRQAPGKERELVASISSSGITNYADSVKGRFTISRDNAKNTVYLQMNSLKPEDTAVYYCASQYYISPLRYYSPTGGYWGQGTQVTVSS”, which “polyreactivity (PSR sort gate)” value is on record?
Answer: high polyreactivity

Question: Which “polyreactivity (PSR sort gate)” value does the source give for “QVQLVESGGGLVQAGGSLRLSCAASGLTFGDYTMGWYRQAPGKERELVAAISTSGGSTYYADSVKGRFTISRDNAKNTVYLQMNSLKPEDTAVYYCNARRTHTRSHYYYWGQGTQVTVSS” here?
Answer: high polyreactivity

Question: With “QVQLVESGGGLVQAGGSLRLSCAASGLTFGDYTMGWYRQAPGKERELVAAITGSGASTYYADSVKGRFTISRDNAQNTGYLQMNSLKPEDTAVYYCDAERTPSYRAYDYWGQGTQVTVSS” as the sequence, how does the “polyreactivity (PSR sort gate)” value read?
Answer: low polyreactivity

Question: With “QVQLVESGGGLVQAGGSLRLSCAASGLTFGDYTMGWYRQAPGKERELVAAITWSGASTYYADSVKGRFTISRDNAKNTVYLEMNSLKPEDTAGYYCAAERTPSYRAYDYWGQGTQVTVSS” as the sequence, how does the “polyreactivity (PSR sort gate)” value read?
Answer: low polyreactivity

Question: With “QVQLVESGGGLVQAGGSLRLSCAASGLTFGFNAMGWYRQAPGKERELVAAISSRGGSTYYADSVKGRFTISRDNAKNTVYLQMNSLKPEDTAVYYCNARSVYDGFWYNYWGQGTQVTVSS” as the sequence, how does the “polyreactivity (PSR sort gate)” value read?
Answer: low polyreactivity

Question: With “QVQLVESGGGLVQAGGSLRLSCAASGLTFGFYARGWYTQAPGKERQLVPRISNGGSTNYADSVKGRFTISRDNAKNTVYLQMNSLKPEDTAVYYCNAGLVLPPPGAYIVYFDQMDYWGQGTQVTVSS” as the sequence, how does the “polyreactivity (PSR sort gate)” value read?
Answer: low polyreactivity

Question: With “QVQLVESGGGLVQAGGSLRLSCAASGLTFGGNAMGWYRQAPGKERELVAGISWSGGNTNYADSVKGRFTISRDNAKNTVYLQMNSLKPEDNAVYYCNKATNLSGGYDSWGQGTQVTVSS” as the sequence, how does the “polyreactivity (PSR sort gate)” value read?
Answer: low polyreactivity

Question: For “QVQLVESGGGLVQAGGSLRLSCAASGLTFGGYVMGWYRQAPGKERELVAAISGSGGRTYYADSVKGRFTISRDNAKNTVYLQRNSLKPEDTAVYDCARPPRGPPRGYYWGQGTQVTVSS”, which “polyreactivity (PSR sort gate)” value is on record?
Answer: high polyreactivity

Question: Which “polyreactivity (PSR sort gate)” value does the source give for “QVQLVESGGGLVQAGGSLRLSCAASGLTFGRNAMGWYRQAPGKERELVAAIRWSGGSTYYADSVKGRFTISRDNAKNTVYLQMNSLKPEDTAVYYCAATRVLRPVGTHYYYWGQGTQVTVSS” here?
Answer: high polyreactivity

Question: Which “polyreactivity (PSR sort gate)” value does the source give for “QVQLVESGGGLVQAGGSLRLSCAASGLTFGRYAMGWYRQAPGKERELVAAITASGGITYYADSVKGRFTISRDNAKNTVYLQMNSLKPEDTAVYYCAADGEVKYDYWGQGTQVTVSS” here?
Answer: low polyreactivity

Question: With “QVQLVESGGGLVQAGGSLRLSCAASGLTFGSYAMGWYRQAPGKERELVAAISRSGITYYADSVKGRFTISRDNAKNTVYLQMNSLKPEDTAVYYWAVTQNSKSTKIRPDQGDYGGQGTQVTVSS” as the sequence, how does the “polyreactivity (PSR sort gate)” value read?
Answer: high polyreactivity

Question: With “QVQLVESGGGLVQAGGSLRLSCAASGLTFGVYAMGWSRQAPGKERELVAAIDLSDDITYYADSVKGRFTISRDNAKNTVYLQMNSLKPEDTAVYYSAAEYYLYSTYTVSYWKYDYWGQGTQVTVSS” as the sequence, how does the “polyreactivity (PSR sort gate)” value read?
Answer: high polyreactivity

Question: With “QVQLVESGGGLVQAGGSLRLSCAASGLTFGYYAMGWYRQAPGKERELVAGISGSGGSTYYADSVKGRFTISRDNAKNTLYLQMNSLKPEDTAVYYCNAEARYTGFAYSYFNSDYWGQGTQVTVSS” as the sequence, how does the “polyreactivity (PSR sort gate)” value read?
Answer: low polyreactivity

Question: With “QVQLVESGGGLVQAGGSLRLSCAASGLTFGYYAMGWYRQAPGKERELVAVISGGGGTHYADSVKGRFTISRDNAKITVYLQMNSLKPEDTAVYYCAARYRAQQIARYYYWGQGTQVTVSS” as the sequence, how does the “polyreactivity (PSR sort gate)” value read?
Answer: high polyreactivity

Question: With “QVQLVESGGGLVQAGGSLRLSCAASGLTFGYYDMGRYRQAPGKERELVAAITSGGTTNYADSVKGRFTISRDNAKNTVYLQMNSQKPEDNAVYYCNADYYSRIVGVRIYDYWGQGTQVTVSS” as the sequence, how does the “polyreactivity (PSR sort gate)” value read?
Answer: low polyreactivity

Question: With “QVQLVESGGGLVQAGGSLRLSCAASGLTFIHYAMGWYRQAPGKEREFVAAISTNSGSTYYADSVKGRFTISRDNAKNTVYLQMNSLKPEDTAVYYCAARGLRWRIDGEYWGQGTQVTVSS” as the sequence, how does the “polyreactivity (PSR sort gate)” value read?
Answer: high polyreactivity

Question: Which “polyreactivity (PSR sort gate)” value does the source give for “QVQLVESGGGLVQAGGSLRLSCAASGLTFIIYAMGWYRQAPGKERELVARISSGGRTNYADSVKGRFTISRDYAKNTVYIQMNSLTPEDTAVYYCAAAFVYPYRHYYRYDYWGQATQVTVSS” here?
Answer: high polyreactivity

Question: With “QVQLVESGGGLVQAGGSLRLSCAASGLTFKANAMGWYRQAPGKERELVAAITWSGTSTYYADSVKGRFTISRDNAKNTVYLQMNSLKPEDTAVYYCNKPYDVWYHDYDYWGQGTQVTVSS” as the sequence, how does the “polyreactivity (PSR sort gate)” value read?
Answer: low polyreactivity

Question: Which “polyreactivity (PSR sort gate)” value does the source give for “QVQLVESGGGLVQAGGSLRLSCAASGLTFKFNAMGWYIQAPGKERELVADISFGGDDTYYSDSVKGRFTISRDNAKNTVYLQMNSQKPEDNAVYYCAAEYDTWGYSGRDYWGQGTQVTVSS” here?
Answer: low polyreactivity

Question: For “QVQLVESGGGLVQAGGSLRLSCAASGLTFKRYAMGWYRQAPGKEREFVAAISAGGASTHYADSVKGRFTISRDNAKNTVYLQMNSLKPEDTAVYYCATDYRTFRPSFGYWGQGTQVTVSS”, which “polyreactivity (PSR sort gate)” value is on record?
Answer: low polyreactivity

Question: With “QVQLVESGGGLVQAGGSLRLSCAASGLTFKRYVMGWYRQAPGKERELVAAITVSGGNTYYADSVKGRFTISRDNAKNTVYLQMNSLKPEDTAVYYCNADAGAIYYRRYHFYYWGQGTQVTVSS” as the sequence, how does the “polyreactivity (PSR sort gate)” value read?
Answer: low polyreactivity

Question: With “QVQLVESGGGLVQAGGSLRLSCAASGLTFKSNAMGWYRPAPGKERELVASISKRGGTTYYADSVKGRFTISRDNAKNTVYLQMNSLKPEDTAVYYCAAQSRATTYSWWTGSDYWGQGTQVTVSS” as the sequence, how does the “polyreactivity (PSR sort gate)” value read?
Answer: high polyreactivity

Question: For “QVQLVESGGGLVQAGGSLRLSCAASGLTFKSYAMGWYRQAPGKERELVAAISWRGGRTYYADSVKGRFTISRDNAKNTVYLQMNSLKPEDTAVYYCNARSQQWWLSRYNYWGQGSQVTVSS”, which “polyreactivity (PSR sort gate)” value is on record?
Answer: high polyreactivity

Question: Which “polyreactivity (PSR sort gate)” value does the source give for “QVQLVESGGGLVQAGGSLRLSCAASGLTFKVYDMGWYRQAPGKERELVAAISWSGGSTYYADSVKGRFTISRDNAKNTVYLQMNSLKPEDTAVYFCAVEPSYYVVFFPYEYWGQGTQVTVSS” here?
Answer: low polyreactivity

Question: For “QVQLVESGGGLVQAGGSLRLSCAASGLTFKYYAMGWYRQAPGKERELVAAISWNGDRTYYADSVKGRFTISRDNAKNTVYLQMNSLKPEDTAVYYCATKFYFSTSIAGGYWGQGTQVTVSS”, which “polyreactivity (PSR sort gate)” value is on record?
Answer: high polyreactivity

Question: Which “polyreactivity (PSR sort gate)” value does the source give for “QVQLVESGGGLVQAGGSLRLSCAASGLTFLNNAMGWYRQAPGKERELVAAISDGGSTNYADSVKGRFTISRDNAKNTVYLQMNSLKPEDTAVYYCAARVRGDYGHKYYQFDYWGQGTQVTVSS” here?
Answer: low polyreactivity

Question: For “QVQLVESGGGLVQAGGSLRLSCAASGLTFLWYAMGWYRQAPGKERELVAAITSGGRTKYADSVKGRFTISRDNAKNTVYLQMNSLKPEDTAVYYCAAYTQWWGYDYWGQGTLVTVSS”, which “polyreactivity (PSR sort gate)” value is on record?
Answer: high polyreactivity

Question: Which “polyreactivity (PSR sort gate)” value does the source give for “QVQLVESGGGLVQAGGSLRLSCAASGLTFLWYAMGWYRQAPGKERELVAAITSGGRTKYADSVKGRFTISRDNAKNTVYLQMNSLKPEDTAVYYCAKRGGGTTYSRKHDYWGQGTQVTVSS” here?
Answer: high polyreactivity

Question: Which “polyreactivity (PSR sort gate)” value does the source give for “QVQLVESGGGLVQAGGSLRLSCAASGLTFLYYAMGWYRQAPGKEREFVAAIDISGGSTYYADSVKGRFTISRDNAKKTVYLQMYSLKPEDTAVYYCAVEPWYYLAGRSQYDYWGQGTQVTVSS” here?
Answer: low polyreactivity
